What was measured:
[1] = cycloheximide chase, WB, MCF-7 FOXA1 KO; settings: glycan lost; control: FOXA1WT
[2] = HA IP, anti-phospho-Ser/Thr WB; settings: glycan lost; control: FOXA1WT, untreated
[3] = HA IP, anti-ubiquitin WB; settings: control: untreated HA-FOXA1WT cells
[4] = WB of HA-FOXA1 protein level; settings: control: untreated HA-FOXA1WT cells

Protein | degradation_or_half_life [1] | other: serine/threonine phosphorylation [2] | other: ubiquitination ([3]; glycan gained) | expression_or_secretion ([4]; glycan gained) | other: ubiquitination ([3]; glycan lost) | expression_or_secretion ([4]; glycan lost)
FOXA1: FOXA13A (protein) parent chain: MLGTVKMEGHETSDWNSYYADTQEAYSSVPVSNMNSGLGSMNSMNTYMTMNTMTTSGNMTPASFNMSYANPGLGAGLSPGAVAGMPGGSAGAMNSMTAAGVTAMGTALSPSGMGAMGAQQAASMNGLGPYAAAMNPCMSPMAYAPSNLGRSRAGGGGDAKTFKRSYPHAKPPYSYISLITMAIQQAPSKMLTLSEIYQWIMDLFPYYRQNQQRWQNSIRHSLSFNDCFVKVARSPDKPGKGSYWTLHPDSGNMFENGCYLRRQKRFKCEKQPGAGGGGGSGSGGSGAKGGPESRKDPSGASNPSADSPLHRGVHGKTGQLEGAPAPGPAASPQTLDHSGATATGGASELKTPASSTAPPISSGPGALASVPASHPAHGLAPHESQLHLKGDPHYSFNHPFSINNLMSSSEQQHKLDFKAYEQALQYSPYGSTLPASLPLGSASVTTRSPIEPSALEPAYYQGVYSRPVLNTS | increases | decreases |  |  |  | 
FOXA1: TMG (protein) parent chain: MLGTVKMEGHETSDWNSYYADTQEAYSSVPVSNMNSGLGSMNSMNTYMTMNTMTTSGNMTPASFNMSYANPGLGAGLSPGAVAGMPGGSAGAMNSMTAAGVTAMGTALSPSGMGAMGAQQAASMNGLGPYAAAMNPCMSPMAYAPSNLGRSRAGGGGDAKTFKRSYPHAKPPYSYISLITMAIQQAPSKMLTLSEIYQWIMDLFPYYRQNQQRWQNSIRHSLSFNDCFVKVARSPDKPGKGSYWTLHPDSGNMFENGCYLRRQKRFKCEKQPGAGGGGGSGSGGSGAKGGPESRKDPSGASNPSADSPLHRGVHGKTGQLEGAPAPGPAASPQTLDHSGATATGGASELKTPASSTAPPISSGPGALASVPASHPAHGLAPHESQLHLKGDPHYSFNHPFSINNLMSSSEQQHKLDFKAYEQALQYSPYGSTLPASLPLGSASVTTRSPIEPSALEPAYYQGVYSRPVLNTS |  |  | increases | decreases |  | 
FOXA1: OSMI-4 (protein) parent chain: MLGTVKMEGHETSDWNSYYADTQEAYSSVPVSNMNSGLGSMNSMNTYMTMNTMTTSGNMTPASFNMSYANPGLGAGLSPGAVAGMPGGSAGAMNSMTAAGVTAMGTALSPSGMGAMGAQQAASMNGLGPYAAAMNPCMSPMAYAPSNLGRSRAGGGGDAKTFKRSYPHAKPPYSYISLITMAIQQAPSKMLTLSEIYQWIMDLFPYYRQNQQRWQNSIRHSLSFNDCFVKVARSPDKPGKGSYWTLHPDSGNMFENGCYLRRQKRFKCEKQPGAGGGGGSGSGGSGAKGGPESRKDPSGASNPSADSPLHRGVHGKTGQLEGAPAPGPAASPQTLDHSGATATGGASELKTPASSTAPPISSGPGALASVPASHPAHGLAPHESQLHLKGDPHYSFNHPFSINNLMSSSEQQHKLDFKAYEQALQYSPYGSTLPASLPLGSASVTTRSPIEPSALEPAYYQGVYSRPVLNTS |  | decreases |  |  | decreases | increases

From PMC10438466
